Reference: patent US20250108100A1, “C-TERMINAL FRAGMENT OF APOLIPOPROTEIN E AND APPLICATION THEREOF IN INHIBITING y-SECRETASE ACTIVITY” (SYNPHATEC (SHANGHAI) BIOPHARMACEUTICAL TECHNOLOGY CO., LTD., priority 2022, published 2025)

How the values were obtained:
[1] = tested on: primary cultured mouse hippocampal or cortical neurons; assay: Endogenous Aβ40 in primary cultured mouse cortical or hippocampal neurons (lentivirus, ELISA); type: cell-based; conditions: for endogenously produced Aβ40: lentivirus
Protocol: Primary cultured neurons were derived from the cortex or hippocampus of 16-day embryonic mice. The mouse cortex or hippocampus was obtained under a stereoscope, and was digested at 37° C. for 10 minutes with 20 U/ml papain (Worthington Company). After digestion, the neurons that exist in single-cell form were seeded with 100,000 neurons per well (24-well plate); the neurons were cultured in the neuron culture medium (Neurobasal medium; ThermoFisher Company) containing 2% B27 (ThermoFisher Company) and 1% penicillin/streptomycin; the fresh culture medium was changed once a week.
The experiment was performed according to the standard procedure in the ELISA analysis kit of Invitrogen Company. • a) The target protein was expressed in HEK 293T cell line. Cells were subcultured one day before transfection, and transfection was performed when the degree of cell adhesion reached 70%-80%. The transfection reagent was lipofectamine2000 (ThermoFisher). • b) 4-6 hours post transfection, medium were replaced with fresh cell culture medium. • c) 36-48 hours post transfection, the cell culture medium was collected, and then the ELISA process was performed or the cell culture medium was frozen in a −80° C. refrigerator. • d) 50 μl of standard samples and experimental samples were added to each well of the 96-well plate. • e) 50 μl of human-derived Aβ40 or Aβ42 or mouse-derived Aβ40 detection antibody was added to each well of the 96-well plate. • f) The above samples were shaken gently and placed at room temperature for 3 hours. • g) The liquid in the well were removed, and the plate was washed 4 times with 1× wash buffer. • h) 100 μl of the buffer containing 1× anti-Rabbit IgG HRP was added. • i) The plate was shaken gently and placed at room temperature for […]. • j) The liquid in the well were removed, and the well was washed 4 times with 1× wash buffer. • k) 100 μl of Stabilized Chromogen was added to each well, and the plate was placed in the dark for 30 minutes at room temperature. • l) 100 μl of Stop Solution was added to each well. • m) The absorbance at 450 nm was measured with a microplate reader. 2.4 qRT-PCR
• a) Construction of lentivirus expression plasmids, lentivirus-GFP and lentivirus-ApoE CT, which can be specifically expressed in neurons. • b) The lentivirus vectors were cotransfected with coat protein vectors (PSPAX2 and PMD2G) in HEK 293T cell line. Cells were subcultured one day before transfection, and transfection was performed when the degree of cell adhesion reached 70%-80%. […]
48 hours after transfection of HEK 293T cells and N2A cells, or 4.5 days after lentivirus infection of neurons, media and lysates were collected. Aβ40 and Aβ42 in the culture medium and cell lysates were detected by an Aβ ELISA kit as indicated in the protocol. […]

APP mutants = assay: α-CTF produced by APP variants with AD-related mutations co-expressed in HEK 293T cells; type: cell-based, human
Protocol: Plasmids were transfected in HEK 293T or N2A cells for 36-48 hours and then lysed in cell lysis buffer [10% 1M tris-HCl (pH=6.8), 4% SDS, 20% glycerol, 0.01% bromophenol blue]. Lysates were shaken at room temperature for 10 min, then boiled for 10 min, and centrifuged at 12,000×g for 10 min. Proteins were run on 8% or 12% Tris-glycine SDS-PAGE and transferred to PVDF membranes (Life Technologies). Samples were incubated overnight at 4° C. with primary antibody diluted in 5% BSA buffer (in 1×TBST). After washing 3 times with 1×TBST, they were incubated with secondary antibody diluted in 5% BSA buffer (in 1×TBST) for 2 hours at room temperature. Finally, after washing 3 times with 1×TBST, the signal was detected by ECL Western blotting substrate (Solarbio, PE0010).

B1: ApoE CT: C-terminal fragment of ApoE, positions 216-299 of SEQ ID NO: 12; SEQ ID NO: 33 (protein)
chain: ARMEEMGSRTRDRLDEVKEQVAEVRAKLEEQAQQIRLQAEAFQARLKSWFEPLVEDMQRQWAGLVEKVQAAVGTSAAPVPSDNH
**Q.** What does the source list for B1?
**A.** reduction in endogenous Aβ40 ([1]; mouse cortical and hippocampal neurons, lentiviral infection, vs GFP controls): 30%; endogenously produced Aβ40 ([1]; primary cultured mouse cortical neurons): about 73 % of the control group; endogenously produced Aβ40 ([1]; primary cultured mouse hippocampal neurons): about 71 % of the control group; endogenously produced Aβ40 ([1]; primary cultured mouse neurons, vs GFP control): can reduce the endogenous production of Aβ40; effect on α-CTF levels, Icelandic mutation (APP mutants; APP A673T): no difference; ability to increase α-CTF levels compared to WT APP (APP mutants; APP fAD mutations near γ cleavage site (T714I, V717F, L723P)): significantly reduced; α-CTF produced by all tested APP mutants (APP mutants; HEK 293T cells): increased α-CTF; α-CTF produced by APPM596V (APP mutants; HEK 293T cells, APP mutation that cannot conduct β-cleavage): able to increase α-CTF; effect on α-CTF levels, WT APP vs APP mutants (APP mutants; fAD mutations near β- or α-cleavage site (KM670/671NL, E693K, E693A)): no statistically significant difference
